This is an account of results in the DeepSol protein solubility set.

This data set is described as follows: soluble on expression in E. coli; label from the status in PepcDB or PDB records.
Regarding “MKIEELIAIRRDLHRIPELGFQEFKTQQYLLNVLEQYPQDRIEIEKWRTGLFVKVNGTAPEKMLAYRADIDALSIEEQTGLPFASEHHGNMHACGHDLHMTIALGIIDHFVHHPVKHDLLFLFQPAEEGPGGAEPMLESDVLKKWQPDFITALHIAPELPVGTIATKSGLLFANTSELVIDLEGKGGHAAYPHLAEDMVVAASTLVTQLQTIISRNTDPLDSAVITVGTITGGSAQNIIAETAHLEGTIRTLSEESMKQVKERIEDVVKGIEIGFRCKGKVTYPSVYHQVYNTSGLTEEFMSFVAEHQLATVIEAKEAMTGEDFGYMLKKYPGFMFWLGADSEHGLHHAKLNPDENAIETAVHVMTGYFSVYAN”, the “soluble on expression in E. coli” value is “not soluble”.

Regarding “TDPDFLIRLATNLKEEKSKRLEAEQKIEAQRPKVLFADAVSDTEGTILIRDLAKLIQQNGVDIGEKRLFEWLRQNGYLISRRGTDYNRPTQKSMELGLFKIKETAIMRSSGAHTAITAKVTGKGQLYFVNKFLEQSLV”, the “soluble on expression in E. coli” value is reported as “not soluble”.

In the case of “MGSDKIHHHHHHMVILVNPSILESSFIPDRLVARDGEIERIMETVIKPTKNGITTNLILYGDSGTGKTVTMRYLAREIRDPQVVYVNAIAYRYVKNVLIDFLSKFGIIVPERSSYASLFTRIEGLLRNQGKNVILVIDEAANILKGDYDGLYYLFRSKDSFDVNISTIFVVMEDPAILFDAKIRKSYGIFSEIKFRRYTKGEIYQIVMNRAVQSLTGEGYDEDVLDYIAEVSAEYGSARVGIDILAKAAHIAEYRRSPKISFDDVRAARSMISPFVTESKLASMDYEDLMVLLSICRCLSASRFTDVDCISRNLSVISEQYGKKDINLYDRIKRLENNGIISSSIEGQGRGEGVKKVISIYDIPVSVLTEKIENLLSA”, the “soluble on expression in E. coli” value is “not soluble”.

As to “GPLGSPQMAQGTLIRVTPEQPTHAVCVLGTLTQLDICSSAPEDCTSFSINASPGVVVDIAHSPPAKKKSTGSSTWPLDPGVEVTLTMKAASGSTGDQKVQISYYGPKTPPVKALLYLTAVEISLCADITRTGKVKPTRAVKDQRTWTWGPCGQGAILLVNCDRDNLESSAMDCEDDEVLDSEDLQDMSLMTLSTKTPKDFFTNHTLVLHVARSEMDKVRVFQATRGKLSSKCSVVLGPKWPSHYLMVPGGKHNMDFYVEALAFPDTDFPGLITLTISLLDTSNLELPEAVVFQDSVVFRVAPWIMTPNTQPPQEVYACSIFENEDFLKSVTTLAMKAKCKLTICPEEENMDDQWMQDEMEIGYIQAPHKTLPVVFDSPRNRGLKEFPIKRVMGPDFGYVTRGPQTGGISGLDSFGNLEVSPPVTVRGKEYPLGRILFGDSCYPSNDSRQMHQALQDFLSAQQVQAPVKLYSDWLSVGHVDEFLSFVPAPDRKGFRLLLASPRSCYKLFQEQQNEGHGEALLFEGIKKKKQQKIKNILSNKTLREHNSFVERCIDWNRELLKRELGLAESDIIDIPQLFKLKEFSKAEAFFPNMVNMLVLGKHLGIPKPFGPVINGRCCLEEKVCSLLEPLGLQCTFINDFFTYHIRHGEVHAGTNVRRKPFSFKWWNMVP”, the “soluble on expression in E. coli” value is listed as “soluble”.

Consider “MAPPTTIRTRDQALAPLATLDSQTNCRLKELVQWECQFKGAEYVCSPFKRLFEHCIAPDKSATNYEVTDTYTNS”, for which the “soluble on expression in E. coli” value was “not soluble”.

“ASPLMSRTPAFERAAALARAKSAALHIVAFDYVEGLAAAGLLNERALNEMRDGYLASHRQWLEQQAQLIRQSGVEVTTEVVWVMRPLDEIMAHVHEIKPSMVIKDIGHESWLTRAMFTSLDIRLLHDCPVPLHLVANVDH”: the “soluble on expression in E. coli” value is “not soluble”.

Consider “MAKTYGLIGLYSRIVNKIEDSKKYLSLAIEMNIQSGNHKSLFVNELRLAHTYQWETNYHKSNKLFKKLKEQSESDTEHSNYLDSVYQHYGKNLFDQSEYQLALKYVKKALRIRVEKGNKELIDSTEYAINICNEKIKQIKEMAGDPLEHHHHHH”, for which the “soluble on expression in E. coli” value is recorded as “not soluble”.

In the case of “MESRESSKDRLLILPSMGESYTEYVDSYLNLELLERGERETPIFLESLTRQLTQKIYELIKTKSLTADTLQQISDKYDGVVAENKLLFLQRQYYVDDEGNVRDGRNNDKIYCEPKHVYDMVMATHLMNKHLRGKTLHSFLFSHFANISHAIIDWVQQFCSKCNKKGKIKPLKEYKR”, the “soluble on expression in E. coli” value is reported as “soluble”.

For the sequence “MSLTAERQERLLARVEDAFGVISVYEVDDYRFLEFGDAIEQSCVFTADPSWLEYDYTRAMLVGALCHESPESALFLGLGAGTLTQACMKFLPLEDIEAIELRPDVPRLAMDYLGLDDDPRLYVRIGDALELLPTAEKADLLFVDLYTDHGPGVGHLAWNFLENCQQHLNPGGWLVINQWATDDGRPLGAALLRGLYHRHYWELPVKEGNVILLVPADLEQSLDLDGLRARAEALAPRLGYSLDGLIREIRPATEGHHHHHH”, the “soluble on expression in E. coli” value is “soluble”.
